From publication PMC4422553 come the findings set out here.

The target of the assay is His6-tagged Rev-A IN (reticuloendotheliosis virus strain A integrase) (reticuloendotheliosis virus strain A (Rev-A)).
Chain of His6-tagged Rev-A IN (reticuloendotheliosis virus strain A integrase) (reticuloendotheliosis virus strain A (Rev-A)) (P03360 752-1152 limits assumed): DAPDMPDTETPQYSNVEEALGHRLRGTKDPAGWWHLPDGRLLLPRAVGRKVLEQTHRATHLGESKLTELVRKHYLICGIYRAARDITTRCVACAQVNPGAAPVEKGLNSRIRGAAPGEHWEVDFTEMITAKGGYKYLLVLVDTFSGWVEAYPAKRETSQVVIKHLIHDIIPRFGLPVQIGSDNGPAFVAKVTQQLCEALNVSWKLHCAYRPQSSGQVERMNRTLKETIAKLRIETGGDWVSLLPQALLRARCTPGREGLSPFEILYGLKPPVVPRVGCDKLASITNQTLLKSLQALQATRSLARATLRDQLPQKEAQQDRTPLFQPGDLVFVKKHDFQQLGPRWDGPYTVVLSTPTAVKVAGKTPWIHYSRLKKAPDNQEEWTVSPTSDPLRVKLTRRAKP

In the case of “BRD4(462-720), C-terminal fragment of human BRD4 that contains the ET domain (from UniProt O60885-2 462-720) (domain or fragment)”, the concerted integration (DNA strand transfer) activity of Rev-A IN in vitro with 0.05, 0.15, 0.35, 0.5 μM BRD4 (462–720), against the activity without BRD4 protein came out at 5 fold.
